{
  "source": "paper PMC9581579",
  "about": "(2022)",
  "binders": {"B1": {"name": "HMT-Gpsm2 (His6-MBP-TEV site-Gpsm2) (natural protein)", "chain": "MEENLISMREDHSFHVRYRMEASCLELALEGERLCKSGDCRAGVSFFEAAVQVGTEDLKTLSAIYSQLGNAYFYLHDYAKALEYHHHDLTLARTIGDQLGEAKASGNLGNTLKVLGNFDEAIVCCQRHLDISRELNDKVGEARALYNLGNVYHAKGKSFGCPGPQDVGEFPEEVRDALQAAVDFYEENLSLVTALGDRAAQGRAFGNLGNTHYLLGNFRDAVIAHEQRLLIAKEFGDKAAERRAYSNLGNAYIFLGEFETASEYYKKTLLLARQLKDRAVEAQSCYSLGNTYTLLQDYEKAIDYHLKHLAIAQELNDRIGEGRACWSLGNAYTALGNHDQAMHFAEKHLEISREVGDKSGELTARLNLSDLQMVLGLSYSTNNSIMSENTEIDSSLNGVRPKLGRRHSMENMELMKLTPEKVQNWNSEILAKQKPLIAKPSAKLLFVNRLKGKKYKTNSSTKVLQDASNSIDHRIPNSQRKISADTIGDEGFFDLLSRFQSNRMDDQRCCLQEKNCHTASTTTSSTPPKMMLKTSSVPVVSPNTDEFLDLLASSQSRRLDDQRASFSNLPGLRLTQNSQSVLSHLMTNDNKEADEDFFDILVKCQGSRLDDQRCAPPPATTKGPTVPDEDFFSLILRSQGKRMDEQRVLLQRDQNRDTDFGLKDFLQNNALLEFKNSGKKSADH"}},
  "key": {"[1]": {"biological_target": "T1, His-Avi-Trx-Frmpd1-pept (Frmpd1 residues 895–938) (UniProt A2AKB4 895-938, not fully specified; biotin (biotinylated in E. coli by native BirA ligase))", "T1 chain": "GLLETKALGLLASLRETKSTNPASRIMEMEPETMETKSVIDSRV", "experiment": "BLI"}, "[2]": {"biological_target": "T1, His-Avi-Trx-Frmpd1-pept (Frmpd1 …)", "experiment": "BLI; in the presence of Gαt*"}},
  "data": [
    {"binder": "B1", "values": [
      {"measurement": "Kd", "setting": "[1]", "value": 286, "unit": "nM"},
      {"measurement": "Kd", "setting": "[2]", "value": 198, "unit": "nM"}
    ]}
  ]
}
